Changes are numbered by the printed parent chain.
Biological target: T1, KRAS-G12V antigen (RAS G12V-T15 peptide) (Homo sapiens, UniProt P01116, G12V)
T1 construct: endogenous in cells; host or cells: patient B13 autologous LCL cells (endogenous HLA-DP); the peptide is synthetic
Assay: TCR mutant screening in Jurkat-NFAT-Luc cells with antigen-loaded B13 LCL cells (ONE Glo Luciferase)
Format: cell-based
Conditions: MHC-II binding region mutants; ratio to wild-type B13.14.1 TCR; 16-24 hours
Method: According to the table below, point mutations were performed on the Vα and Vβ of B13.14.1 TCR (including CDR3 region and […]), and a lentiviral vector shuttle plasmid encoding the TCR mutant was constructed, packaged with the standard lentiviral vector in 293T cells, and B13.14.1TCR mutant were subjected to function screening.
The TCR mutant (CDR3 region) lentiviral vector was transduced into Jurkat-NFAT-Luc cell line, and B13 LCL cells loaded with KRAS-G12V antigen (RAS G12V-T15 peptide, SEQ ID NO: 5) were used as antigen-presenting cells. 2×10^4 TCR-T and 2×10^4 antigen-loaded B13 LCL cells were co-cultured for 16-24 hours, and added with ONE Glo Luciferase to detect the expression of fluorescent signal, and the TCR Mut RLU/WT RLU (ratio of RLU signal value of TCR mutant to RLU signal value of wild-type B13.14.1 TCR) was calculated.
The TCR mutant (MHC-II binding region) lentiviral vector was transduced into the Jurkat-NFAT-Luc cell line, and B13 LCL cells loaded with KRAS-G12V antigen (RAS G12V-T15 peptide, SEQ ID NO: 5) were used as the antigen-presenting cells. 2×10^4 TCR-T and 2×10^4 antigen-loaded B13 LCL cells were co-cultured for 16-24 hours, the fluorescence signal expression was detected by adding ONE Glo Luciferase, and TCR Mut RLU/WT RLU (ratio of RLU signal value of TCR mutant to RLU signal value of wild-type B13.14.1TCR) was calculated.

B1: β51I-Y: B13.14.1 TCR Vβ point mutant (protein)
TCR alpha: AQSVAQPEDQVNVAEGNPLTVKCTYSVSGNPYLFWYVQYPNRGLQFLLKYITGDNLVKGSYGFEAEFNKSQTSFHLKKPSALVSDSALYFCAVRDGRGGGNKLTFGTGTQLKVEL
TCR beta: GITQSPKYLFRKEGQNVTLSCEQNLNHDAMYWYRQDPGQGLRLIYYSQYVNDFQKGDIAEGYSVSREKKESFPLTVTSAQKNPTAFYLCASSPGQRDNSPLHFGNGTRLTVT
  TCR Mut RLU/WT RLU: 19.64%

B2: α32Y-H: B13.14.1 TCR Vα point mutant (protein)
TCR alpha: B1 TCR alpha with Y32H
TCR beta: B1 TCR beta with Y49I
  TCR Mut RLU/WT RLU: 5.60%

B3: α32Y-E: B13.14.1 TCR Vα point mutant (protein)
TCR alpha: B1 TCR alpha with Y32E
TCR beta: B1 TCR beta with Y49I
  TCR Mut RLU/WT RLU: 4.59%

B4: α32Y-R: B13.14.1 TCR Vα point mutant (protein)
TCR alpha: B1 TCR alpha with Y32R
TCR beta: B1 TCR beta with Y49I
  TCR Mut RLU/WT RLU: 5.60%

B5: α32Y-T: B13.14.1 TCR Vα point mutant (protein)
TCR alpha: B1 TCR alpha with Y32T
TCR beta: B1 TCR beta with Y49I
  TCR Mut RLU/WT RLU: 3.77%

B6: α51I-T: B13.14.1 TCR Vα point mutant (protein)
TCR alpha: B1 TCR alpha with I51T
TCR beta: B1 TCR beta with Y49I
  TCR Mut RLU/WT RLU: 68.06%

B7: α51I-A: B13.14.1 TCR Vα point mutant (protein)
TCR alpha: B1 TCR alpha with I51A
TCR beta: B1 TCR beta with Y49I
  TCR Mut RLU/WT RLU: 56.93%

B8: α51I-G: B13.14.1 TCR Vα point mutant (protein)
TCR alpha: B1 TCR alpha with I51G
TCR beta: B1 TCR beta with Y49I
  TCR Mut RLU/WT RLU: 90.09%

B9: α51I-M: B13.14.1 TCR Vα point mutant (protein)
TCR alpha: B1 TCR alpha with I51M
TCR beta: B1 TCR beta with Y49I
  TCR Mut RLU/WT RLU: 68.25%

B10: α32Y-I: B13.14.1 TCR Vα point mutant (protein)
TCR alpha: B1 TCR alpha with Y32I
TCR beta: B1 TCR beta with Y49I
  TCR Mut RLU/WT RLU: 4.64%

B11: α32Y-G: B13.14.1 TCR Vα point mutant (protein)
TCR alpha: B1 TCR alpha with Y32G
TCR beta: B1 TCR beta with Y49I
  TCR Mut RLU/WT RLU: 4.03%

B12: α32Y-S: B13.14.1 TCR Vα point mutant (protein)
TCR alpha: B1 TCR alpha with Y32S
TCR beta: B1 TCR beta with Y49I
  TCR Mut RLU/WT RLU: 5.77%

B13: α51I-S: B13.14.1 TCR Vα point mutant (protein)
TCR alpha: B1 TCR alpha with I51S
TCR beta: B1 TCR beta with Y49I
  TCR Mut RLU/WT RLU: 78.65%

B14: α51I-H: B13.14.1 TCR Vα point mutant (protein)
TCR alpha: B1 TCR alpha with I51H
TCR beta: B1 TCR beta with Y49I
  TCR Mut RLU/WT RLU: 85.85%

B15: α32Y-M: B13.14.1 TCR Vα point mutant (protein)
TCR alpha: B1 TCR alpha with Y32M
TCR beta: B1 TCR beta with Y49I
  TCR Mut RLU/WT RLU: 4.94%

B16: α32Y-L: B13.14.1 TCR Vα point mutant (protein)
TCR alpha: B1 TCR alpha with Y32L
TCR beta: B1 TCR beta with Y49I
  TCR Mut RLU/WT RLU: 6.35%

B17: α32Y-A: B13.14.1 TCR Vα point mutant (protein)
TCR alpha: B1 TCR alpha with Y32A
TCR beta: B1 TCR beta with Y49I
  TCR Mut RLU/WT RLU: 4.68%

B18: α51I-N: B13.14.1 TCR Vα point mutant (protein)
TCR alpha: B1 TCR alpha with I51N
TCR beta: B1 TCR beta with Y49I
  TCR Mut RLU/WT RLU: 84.17%

B19: α32Y-F: B13.14.1 TCR Vα point mutant (protein)
TCR alpha: B1 TCR alpha with Y32F
TCR beta: B1 TCR beta with Y49I
  TCR Mut RLU/WT RLU: 3.81%

B20: α51I-D: B13.14.1 TCR Vα point mutant (protein)
TCR alpha: B1 TCR alpha with I51D
TCR beta: B1 TCR beta with Y49I
  TCR Mut RLU/WT RLU: 93.65%

B21: α51I-P: B13.14.1 TCR Vα point mutant (protein)
TCR alpha: B1 TCR alpha with I51P
TCR beta: B1 TCR beta with Y49I
  TCR Mut RLU/WT RLU: 82.47%

B22: α32Y-P: B13.14.1 TCR Vα point mutant (protein)
TCR alpha: B1 TCR alpha with Y32P
TCR beta: B1 TCR beta with Y49I
  TCR Mut RLU/WT RLU: 3.98%

B23: α32Y-V: B13.14.1 TCR Vα point mutant (protein)
TCR alpha: B1 TCR alpha with Y32V
TCR beta: B1 TCR beta with Y49I
  TCR Mut RLU/WT RLU: 4.71%

B24: α51I-Q: B13.14.1 TCR Vα point mutant (protein)
TCR alpha: B1 TCR alpha with I51Q
TCR beta: B1 TCR beta with Y49I
  TCR Mut RLU/WT RLU: 71.70%

B25: α32Y-W: B13.14.1 TCR Vα point mutant (protein)
TCR alpha: B1 TCR alpha with Y32W
TCR beta: B1 TCR beta with Y49I
  TCR Mut RLU/WT RLU: 3.81%

B26: α51I-R: B13.14.1 TCR Vα point mutant (protein)
TCR alpha: B1 TCR alpha with I51R
TCR beta: B1 TCR beta with Y49I
  TCR Mut RLU/WT RLU: 87.31%

— patent publication US20240000834A1, “RAS MUTANT EPITOPE PEPTIDE AND T CELL RECEPTOR RECOGNIZING RAS MUTANT” (SHANGHAI GENBASE BIOTECHNOLOGY CO., LTD., priority 2020, published 2024)
